According to the RNAGym collection of RNA variant scans (doi:10.1093/molbev/msab373):

B1: Azoarcus group I ribozyme (parent)
chain: GUGCCUUGCGCCGGGAAACCACGCAAGGGAUGGUGUCAAAUUCGGCGAAACCUAAGCGCCCGCCCGGGCGUAUGGCAACGCCGAGCCAAGCUUCGGCGCCUGCGCCGAUGAAGGUGUAGAGACUAGACGGCACCCACCUAAGGCAAACGCUAUGGUGAAGGCAUAGUCCAGGGAGUGGCGAAAGUCACACAAACCGG

Variants of: B1
Assay: reverse-splicing fitness (ratio to wild type); higher = more active; in vitro selection; Mg2+ level not given
Method in brief: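 An in vitro group I ribozyme library with randomized positions was T7-transcribed and gel-purified. In triplicate, 10 pmol RNA in EPPS pH 7.5 was reacted with 50 pmoles of a 30-nt RNA substrate for 1 h at 37 °C across several added MgCl2 levels (1–48 mM), then stopped with EDTA. Products were reverse transcribed from a substrate-complementary primer, PCR-amplified and sequenced (HiSeq 4000). Fitness is a variant's read proportion after selection over that before, normalised to wild type.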

Variant | reverse-splicing fitness
GUGCCUUGCGCCGGGAAACCACGCAAGGGAUGGUGUCAAAUUCGGCGAAACCUAAGCGCCCGCCCGGGCGUAUGGCAACGCCGAGCCAAGCUUCGGCGCCUGCGCCGAUGGAGGUGUAGUGACUAGACGGCACCCACCUAAGGCGAACGCUAUGGUGAAGGCAUAGUCUAGGGAGGGGCGAAAGUCACACAAACCGG | 0.0035
GUGCCUUGCGCCGGGAAACCACGCAAGGGAUGGUGUCAAAUUCGGCGAAACCUAAGCGCCCGCCCGGGCGUAUGGCAACGCCGAGCCAAGCUUCGGCGCCUGCGCCGAUGGAGGUGUAGUGACUAGACGGCACCCACCUAAGGCGAACGCUAUGGUGAAGGCAUAGUCUAGGGAGCGGCGAAAGUCACACAAACCGG | 0.0414
GUGCCUUGCGCCGGGAAACCACGCAAGGGAUGGUGUCAAAUUCGGCGAAACCUAAGCGCCCGCCCGGGCGUAUGGCAACGCCGAGCCAAGCUUCGGCGCCUGCGCCGAUGGAGGUGUAGUGACUAGACGGCACCCACCUAAGGCGAACGCUAUGGUGAAGGCAUAGUCCAGGGAGGGGCGAAAGUCACACAAACCGG | 0.124
GUGCCUUGCGCCGGGAAACCACGCAAGGGAUGGUGUCAAAUUCGGCGAAACCUAAGCGCCCGCCCGGGCGUAUGGCAACGCCGAGCCAAGCUUCGGCGCCUGCGCCGAUGGAGGUGUAGUGACUAGACGGCACCCACCUAAGGCGAACGCUAUGGUGAAGGCAUAGUCCAGGGAGAGGCGAAAGUCACACAAACCGG | 0.344
GUGCCUUGCGCCGGGAAACCACGCAAGGGAUGGUGUCAAAUUCGGCGAAACCUAAGCGCCCGCCCGGGCGUAUGGCAACGCCGAGCCAAGCUUCGGCGCCUGCGCCGAUGGAGGUGUAGUGACUAGACGGCACCCACCUAAGGCGAACGCUAUGGUGAAGGCAUAGUCCAGGGAGCGGCGAAAGUCACACAAACCGG | 0.386
GUGCCUUGCGCCGGGAAACCACGCAAGGGAUGGUGUCAAAUUCGGCGAAACCUAAGCGCCCGCCCGGGCGUAUGGCAACGCCGAGCCAAGCUUCGGCGCCUGCGCCGAUGGAGGUGUAGUGACUAGACGGCACCCACCUAAGGCUAACGAUAUGGUGAAGGCAUAGUCCAGGGAGAGGCGAAAGUCACACAAACCGG | 0.0447
GUGCCUUGCGCCGGGAAACCACGCAAGGGAUGGUGUCAAAUUCGGCGAAACCUAAGCGCCCGCCCGGGCGUAUGGCAACGCCGAGCCAAGCUUCGGCGCCUGCGCCGAUGGAGGUGUAGUGACUAGACGGCACCCACCUAAGGCUAACGAUAUGGUGAAGGCAUAGUCAAGGGAGAGGCGAAAGUCACACAAACCGG | 0.00244
GUGCCUUGCGCCGGGAAACCACGCAAGGGAUGGUGUCAAAUUCGGCGAAACCUAAGCGCCCGCCCGGGCGUAUGGCAACGCCGAGCCAAGCUUCGGCGCCUGCGCCGAUGGAGGUGUAGUGACUAGACGGCACCCACCUAAGGCUAACGAUAUGGUGAAGGCAUAGUCAAGGGAGGGGCGAAAGUCACACAAACCGG | 0.00207
GUGCCUUGCGCCGGGAAACCACGCAAGGGAUGGUGUCAAAUUCGGCGAAACCUAAGCGCCCGCCCGGGCGUAUGGCAACGCCGAGCCAAGCUUCGGCGCCUGCGCCGAUGGAGGUGUAGUGACUAGACGGCACCCACCUAAGGCUAACGAUAUGGUGAAGGCAUAGUCAAGGGAGCGGCGAAAGUCACACAAACCGG | 0.00238
GUGCCUUGCGCCGGGAAACCACGCAAGGGAUGGUGUCAAAUUCGGCGAAACCUAAGCGCCCGCCCGGGCGUAUGGCAACGCCGAGCCAAGCUUCGGCGCCUGCGCCGAUGGAGGUGUAGUGACUAGACGGCACCCACCUAAGGCGAACGCUAUGGUGAAGGCAUAGUCAAGGGAGGGGCGAAAGUCACACAAACCGG | 0.0013
GUGCCUUGCGCCGGGAAACCACGCAAGGGAUGGUGUCAAAUUCGGCGAAACCUAAGCGCCCGCCCGGGCGUAUGGCAACGCCGAGCCAAGCUUCGGCGCCUGCGCCGAUGGAGGUGUAGUGACUAGACGGCACCCACCUAAGGCGAACGCUAUGGUGAAGGCAUAGUCAAGGGAGAGGCGAAAGUCACACAAACCGG | 0.00347
GUGCCUUGCGCCGGGAAACCACGCAAGGGAUGGUGUCAAAUUCGGCGAAACCUAAGCGCCCGCCCGGGCGUAUGGCAACGCCGAGCCAAGCUUCGGCGCCUGCGCCGAUGGAGGUGUAGUGACUAGACGGCACCCACCUAAGGCGAACGCUAUGGUGAAGGCAUAGUCAAGGGAGCGGCGAAAGUCACACAAACCGG | 0.00372
GUGCCUUGCGCCGGGAAACCACGCAAGGGAUGGUGUCAAAUUCGGCGAAACCUAAGCGCCCGCCCGGGCGUAUGGCAACGCCGAGCCAAGCUUCGGCGCCUGCGCCGAUGGAGGUGUAGUGACUAGACGGCACCCACCUAAGGCGAACGCUAUGGUGAAGGCAUAGUCAAGGGAGUGGCGAAAGUCACACAAACCGG | 0.00517
GUGCCUUGCGCCGGGAAACCACGCAAGGGAUGGUGUCAAAUUCGGCGAAACCUAAGCGCCCGCCCGGGCGUAUGGCAACGCCGAGCCAAGCUUCGGCGCCUGCGCCGAUGGAGGUGUAGUGACUAGACGGCACCCACCUAAGGCGAACGCUAUGGUGAAGGCAUAGUCUAGGGAGUGGCGAAAGUCACACAAACCGG | 0.126
GUGCCUUGCGCCGGGAAACCACGCAAGGGAUGGUGUCAAAUUCGGCGAAACCUAAGCGCCCGCCCGGGCGUAUGGCAACGCCGAGCCAAGCUUCGGCGCCUGCGCCGAUGGAGGUGUAGUGACUAGACGGCACCCACCUAAGGCGAACGCUAUGGUGAAGGCAUAGUCGAGGGAGUGGCGAAAGUCACACAAACCGG | 0.087
